Data as given in paper PMC9892617, “Small-angle x-ray and neutron scattering of MexR and its complex with DNA supports a conformational selection binding model” (Biophysical Journal, 2022).

T1: MexR (Pseudomonas aeruginosa, UniProt P52003 5-139)
T1 sequence: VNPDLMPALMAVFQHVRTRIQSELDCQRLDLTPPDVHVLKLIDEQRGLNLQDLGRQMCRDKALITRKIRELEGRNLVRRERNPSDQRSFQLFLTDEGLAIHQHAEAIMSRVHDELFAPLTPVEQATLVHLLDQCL


Columns and labels:
[1] = biological target: the molecule itself; experiment: SEC-MALS; Superdex 75 Increase 5/150, 20 mM HEPES pH 7.1, 150 mM NaCl, 10 mM DTT, 1% v/v glycerol, 0.3 mL/min, 20°C; MALLS with RI detection
[2] = biological target: T1, MexR; experiment: ITC; one MexR dimer per duplex; 20 C; ITC: 20 mM sodium phosphate pH 7.1, 150 mM NaCl, 5 mM beta-mercaptoethanol, 20 C; complex sample buffer: 20 mM sodium phosphate pH 7.1, 150 mM NaCl, 10 mM DTT; conditions: protein: recombinant; tags: 6xHis-thioredoxin tag removed with TEV; chain copies: 2; blunt

| Binder | stoichiometry N [1] | Kd [2] [nM] |
| --- | --- | --- |
| MexR (Val5-Leu139) (domain or fragment, MexR, transcriptional repressor of the MarR family, Pseudomonas aeruginosa, UniProt P52003, residues Val5-Leu139; Homodimer in solution; also called apo-MexR; hMexR; source: E. coli BL21 Rosetta 2(DE3), purified (Ni-NTA IMAC, TEV cleavage, reverse IMAC, Superdex 75)) VNPDLMPALMAVFQHVRTRIQSELDCQRLDLTPPDVHVLKLIDEQRGLNLQDLGRQMCRDKALITRKIRELEGRNLVRRERNPSDQRSFQLFLTDEGLAIHQHAEAIMSRVHDELFAPLTPVEQATLVHLLDQCL | 2 | – |
| PII DNA (dsDNA) DNA 1: CTTATTTTAGTTGACCTTATCAACCTTGTTTCAG DNA 2: CTGAAACAAGGTTGATAAGGTCAACTAAAATAAG | – | 240 |
